Among the data in patent US9176064B2, “Bisubstrate fluorescent probes for protein kinase CK2” (University of Tartu, priority 2012, dated 2015) are remaining activity values, retold here.

Structures are written as SMILES. Where a SMILES comes first, the peptide text is derived from it. [ ]: non-standard residue; d: D form. The star is where a group is joined. X1 = O=C(CCCCCCCn1cnc2c(Br)c(Br)c(Br)c(Br)c21)*

Targets include MKK2 (Homo sapiens, UniProt P36507); PAK4 (Homo sapiens, UniProt O96013); MPSK1 (Homo sapiens, UniProt O75716); Aurora B (Homo sapiens, UniProt Q96GD4); RSK2 (Homo sapiens, UniProt P51812); PKCa (Homo sapiens, UniProt P17252); DYRK1A (Homo sapiens, UniProt Q13627); SIK3 (Homo sapiens, UniProt Q9Y2K2); BRK (Homo sapiens, UniProt Q13882); MST3 (Homo sapiens, UniProt Q9Y6E0); GSK3b (Homo sapiens, UniProt P49841); MELK (Homo sapiens, UniProt Q14680); PAK2 (Homo sapiens, UniProt Q13177); MNK2 (Homo sapiens, UniProt Q9HBH9); IRR (Homo sapiens, UniProt P14616); PIM2 (Homo sapiens, UniProt Q9P1W9); STK33 (Homo sapiens, UniProt Q9BYT3); p38b MAPK (Homo sapiens, UniProt Q15759); HIPK2 (Homo sapiens, UniProt Q9H2X6).

What all share (test): Kinase panel residual activity
Holding throughout (assay type): biochemical
Settings in all cases: compound at 1 micromolar

The target in the next data set is T1, GCK (Homo sapiens, UniProt Q12851).
T1 sequence (Q12851 1-820): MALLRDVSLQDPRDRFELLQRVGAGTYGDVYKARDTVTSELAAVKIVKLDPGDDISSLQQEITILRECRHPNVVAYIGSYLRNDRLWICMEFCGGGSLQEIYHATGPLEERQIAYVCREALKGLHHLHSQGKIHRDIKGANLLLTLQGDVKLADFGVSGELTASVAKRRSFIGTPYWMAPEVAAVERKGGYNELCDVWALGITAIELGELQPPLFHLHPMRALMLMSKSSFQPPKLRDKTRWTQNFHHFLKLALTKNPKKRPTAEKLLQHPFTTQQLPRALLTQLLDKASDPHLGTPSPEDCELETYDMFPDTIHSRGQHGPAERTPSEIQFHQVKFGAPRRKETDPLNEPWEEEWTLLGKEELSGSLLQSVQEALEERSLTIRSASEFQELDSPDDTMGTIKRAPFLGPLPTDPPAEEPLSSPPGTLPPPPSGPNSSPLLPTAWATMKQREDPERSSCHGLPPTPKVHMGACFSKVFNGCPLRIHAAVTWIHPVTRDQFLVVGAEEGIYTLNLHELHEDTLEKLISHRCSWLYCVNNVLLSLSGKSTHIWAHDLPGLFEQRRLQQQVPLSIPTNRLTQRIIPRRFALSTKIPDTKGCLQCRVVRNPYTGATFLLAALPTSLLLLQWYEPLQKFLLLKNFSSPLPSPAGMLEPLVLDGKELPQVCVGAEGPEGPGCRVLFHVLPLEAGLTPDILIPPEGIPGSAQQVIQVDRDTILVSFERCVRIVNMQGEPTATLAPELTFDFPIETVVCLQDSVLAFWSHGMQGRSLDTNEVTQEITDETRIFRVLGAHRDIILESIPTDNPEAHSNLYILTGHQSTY

In a further data set the target is T2, EPH-B1 (Homo sapiens, UniProt P54762).
T2 sequence (P54762 18-984): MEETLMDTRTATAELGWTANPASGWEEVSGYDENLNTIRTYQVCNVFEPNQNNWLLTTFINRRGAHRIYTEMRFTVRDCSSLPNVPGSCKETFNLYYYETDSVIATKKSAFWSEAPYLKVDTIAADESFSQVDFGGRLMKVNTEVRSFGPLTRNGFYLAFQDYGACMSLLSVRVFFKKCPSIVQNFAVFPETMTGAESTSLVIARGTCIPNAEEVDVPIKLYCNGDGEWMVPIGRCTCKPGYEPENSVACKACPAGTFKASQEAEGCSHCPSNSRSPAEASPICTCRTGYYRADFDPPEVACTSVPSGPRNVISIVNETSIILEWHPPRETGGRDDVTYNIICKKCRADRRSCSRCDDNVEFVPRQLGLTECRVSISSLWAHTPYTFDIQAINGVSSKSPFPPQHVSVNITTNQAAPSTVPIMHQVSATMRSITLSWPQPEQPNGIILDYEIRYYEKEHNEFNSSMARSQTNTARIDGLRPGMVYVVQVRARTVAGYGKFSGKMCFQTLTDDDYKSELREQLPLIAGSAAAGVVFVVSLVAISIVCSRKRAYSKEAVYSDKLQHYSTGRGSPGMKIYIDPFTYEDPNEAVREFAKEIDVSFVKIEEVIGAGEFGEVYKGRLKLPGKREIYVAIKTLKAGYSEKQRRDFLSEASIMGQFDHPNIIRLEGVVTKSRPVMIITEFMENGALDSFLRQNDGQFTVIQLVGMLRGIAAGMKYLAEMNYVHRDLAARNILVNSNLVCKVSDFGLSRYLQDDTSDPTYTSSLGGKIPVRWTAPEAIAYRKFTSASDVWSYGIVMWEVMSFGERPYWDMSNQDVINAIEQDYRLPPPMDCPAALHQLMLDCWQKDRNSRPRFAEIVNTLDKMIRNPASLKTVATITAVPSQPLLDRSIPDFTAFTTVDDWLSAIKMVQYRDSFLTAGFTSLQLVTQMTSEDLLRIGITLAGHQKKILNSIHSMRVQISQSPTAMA

Chain of RSK2 (P51812 whole entry, species assumed): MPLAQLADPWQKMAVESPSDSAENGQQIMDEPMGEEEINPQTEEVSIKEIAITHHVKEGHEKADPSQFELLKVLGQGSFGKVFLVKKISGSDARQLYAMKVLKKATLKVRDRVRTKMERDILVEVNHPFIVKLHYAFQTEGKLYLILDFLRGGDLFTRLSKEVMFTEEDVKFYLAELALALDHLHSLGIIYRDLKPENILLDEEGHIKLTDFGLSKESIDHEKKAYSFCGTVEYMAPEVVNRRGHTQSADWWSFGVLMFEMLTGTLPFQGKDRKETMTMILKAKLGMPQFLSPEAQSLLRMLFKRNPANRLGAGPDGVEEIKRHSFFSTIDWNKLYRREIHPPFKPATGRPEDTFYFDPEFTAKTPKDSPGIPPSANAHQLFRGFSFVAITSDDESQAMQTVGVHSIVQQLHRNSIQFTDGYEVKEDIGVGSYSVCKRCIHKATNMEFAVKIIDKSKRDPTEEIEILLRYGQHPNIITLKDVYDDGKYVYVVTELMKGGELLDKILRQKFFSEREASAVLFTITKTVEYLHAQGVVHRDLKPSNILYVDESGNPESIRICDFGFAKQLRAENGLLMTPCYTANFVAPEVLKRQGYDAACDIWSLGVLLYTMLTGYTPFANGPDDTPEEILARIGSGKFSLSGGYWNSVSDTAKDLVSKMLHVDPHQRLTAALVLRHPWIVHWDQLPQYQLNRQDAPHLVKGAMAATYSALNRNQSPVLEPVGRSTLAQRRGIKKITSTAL
Chain of PAK4 (O96013 whole entry, species assumed): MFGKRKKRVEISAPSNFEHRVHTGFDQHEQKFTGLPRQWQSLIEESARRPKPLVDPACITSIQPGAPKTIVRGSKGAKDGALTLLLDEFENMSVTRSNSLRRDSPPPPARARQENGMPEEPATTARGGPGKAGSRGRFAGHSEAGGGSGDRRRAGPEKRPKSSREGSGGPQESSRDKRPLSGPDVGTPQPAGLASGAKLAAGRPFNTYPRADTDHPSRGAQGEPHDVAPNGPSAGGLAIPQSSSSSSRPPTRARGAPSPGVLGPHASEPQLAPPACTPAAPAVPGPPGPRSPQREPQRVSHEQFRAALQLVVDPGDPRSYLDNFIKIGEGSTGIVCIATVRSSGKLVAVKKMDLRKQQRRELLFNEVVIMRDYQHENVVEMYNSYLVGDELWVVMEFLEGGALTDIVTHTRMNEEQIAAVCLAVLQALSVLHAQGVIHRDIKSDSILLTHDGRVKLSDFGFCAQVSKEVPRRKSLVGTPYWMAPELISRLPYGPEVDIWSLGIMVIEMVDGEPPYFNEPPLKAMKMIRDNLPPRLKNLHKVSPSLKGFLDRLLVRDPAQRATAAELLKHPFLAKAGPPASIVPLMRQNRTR
Chain of SIK3 (Q9Y2K2 whole entry, species assumed): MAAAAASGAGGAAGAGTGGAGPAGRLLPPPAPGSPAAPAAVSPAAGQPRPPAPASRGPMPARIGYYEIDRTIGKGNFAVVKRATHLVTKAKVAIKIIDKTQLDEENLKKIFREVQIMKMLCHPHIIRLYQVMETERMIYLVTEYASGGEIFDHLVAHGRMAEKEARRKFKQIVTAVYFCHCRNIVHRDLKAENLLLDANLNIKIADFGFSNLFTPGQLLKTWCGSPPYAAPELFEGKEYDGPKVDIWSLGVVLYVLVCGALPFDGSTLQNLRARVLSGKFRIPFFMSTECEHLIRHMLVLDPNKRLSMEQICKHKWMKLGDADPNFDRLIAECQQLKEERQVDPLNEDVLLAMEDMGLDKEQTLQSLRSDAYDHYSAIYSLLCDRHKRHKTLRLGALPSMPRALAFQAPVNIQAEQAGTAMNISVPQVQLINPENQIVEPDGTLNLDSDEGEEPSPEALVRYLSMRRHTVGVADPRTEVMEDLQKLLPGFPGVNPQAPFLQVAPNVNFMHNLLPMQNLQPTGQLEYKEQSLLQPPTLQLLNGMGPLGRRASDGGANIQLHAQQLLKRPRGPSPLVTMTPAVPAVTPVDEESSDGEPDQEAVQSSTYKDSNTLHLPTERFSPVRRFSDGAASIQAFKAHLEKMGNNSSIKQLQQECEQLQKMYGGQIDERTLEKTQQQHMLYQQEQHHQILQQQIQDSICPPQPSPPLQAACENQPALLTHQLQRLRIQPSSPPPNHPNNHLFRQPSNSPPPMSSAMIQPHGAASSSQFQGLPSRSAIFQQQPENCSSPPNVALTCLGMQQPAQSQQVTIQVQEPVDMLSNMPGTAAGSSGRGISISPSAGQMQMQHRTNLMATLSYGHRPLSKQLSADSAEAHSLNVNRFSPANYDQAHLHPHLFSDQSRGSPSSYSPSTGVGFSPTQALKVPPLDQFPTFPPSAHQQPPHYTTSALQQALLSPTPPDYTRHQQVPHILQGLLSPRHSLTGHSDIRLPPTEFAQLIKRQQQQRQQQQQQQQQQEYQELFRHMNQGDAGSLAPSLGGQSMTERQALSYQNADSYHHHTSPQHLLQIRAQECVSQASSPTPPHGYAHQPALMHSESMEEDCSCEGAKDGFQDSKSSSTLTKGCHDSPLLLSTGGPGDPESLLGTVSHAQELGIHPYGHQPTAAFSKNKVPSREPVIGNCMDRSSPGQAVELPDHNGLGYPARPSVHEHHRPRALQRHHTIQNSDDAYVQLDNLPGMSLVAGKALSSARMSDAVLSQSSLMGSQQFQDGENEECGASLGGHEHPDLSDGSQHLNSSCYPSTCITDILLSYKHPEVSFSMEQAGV
Chain of STK33 (Q9BYT3 whole entry, species assumed): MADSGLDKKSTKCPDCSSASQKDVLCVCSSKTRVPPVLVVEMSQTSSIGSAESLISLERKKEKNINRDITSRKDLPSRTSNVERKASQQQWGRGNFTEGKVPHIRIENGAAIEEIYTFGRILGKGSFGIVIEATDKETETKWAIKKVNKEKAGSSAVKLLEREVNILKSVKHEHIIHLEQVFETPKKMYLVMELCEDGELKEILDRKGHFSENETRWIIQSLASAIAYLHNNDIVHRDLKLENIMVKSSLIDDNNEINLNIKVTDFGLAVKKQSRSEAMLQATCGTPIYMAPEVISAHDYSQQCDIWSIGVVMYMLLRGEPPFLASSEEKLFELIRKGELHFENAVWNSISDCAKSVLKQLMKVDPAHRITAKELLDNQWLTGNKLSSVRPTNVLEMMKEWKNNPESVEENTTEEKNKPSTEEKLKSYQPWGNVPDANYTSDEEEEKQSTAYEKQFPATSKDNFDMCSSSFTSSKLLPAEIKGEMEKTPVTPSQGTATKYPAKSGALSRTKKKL
Chain of PAK2 (Q13177 whole entry, species assumed): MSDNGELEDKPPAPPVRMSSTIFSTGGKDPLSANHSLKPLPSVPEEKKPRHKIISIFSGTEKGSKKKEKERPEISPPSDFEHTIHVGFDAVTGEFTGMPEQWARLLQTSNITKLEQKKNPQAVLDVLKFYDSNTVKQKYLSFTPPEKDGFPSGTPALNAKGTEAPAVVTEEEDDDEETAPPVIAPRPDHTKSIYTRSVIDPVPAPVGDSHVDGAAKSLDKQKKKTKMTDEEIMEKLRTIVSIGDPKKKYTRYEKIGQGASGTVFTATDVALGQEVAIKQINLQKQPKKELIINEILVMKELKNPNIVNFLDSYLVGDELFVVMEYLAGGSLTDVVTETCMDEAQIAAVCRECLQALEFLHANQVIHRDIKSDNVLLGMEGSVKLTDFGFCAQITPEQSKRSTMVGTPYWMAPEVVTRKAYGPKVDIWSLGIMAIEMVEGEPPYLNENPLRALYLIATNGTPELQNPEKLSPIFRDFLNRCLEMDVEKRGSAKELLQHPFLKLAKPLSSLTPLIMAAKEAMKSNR
Chain of IRR (P14616 27-1297, species assumed): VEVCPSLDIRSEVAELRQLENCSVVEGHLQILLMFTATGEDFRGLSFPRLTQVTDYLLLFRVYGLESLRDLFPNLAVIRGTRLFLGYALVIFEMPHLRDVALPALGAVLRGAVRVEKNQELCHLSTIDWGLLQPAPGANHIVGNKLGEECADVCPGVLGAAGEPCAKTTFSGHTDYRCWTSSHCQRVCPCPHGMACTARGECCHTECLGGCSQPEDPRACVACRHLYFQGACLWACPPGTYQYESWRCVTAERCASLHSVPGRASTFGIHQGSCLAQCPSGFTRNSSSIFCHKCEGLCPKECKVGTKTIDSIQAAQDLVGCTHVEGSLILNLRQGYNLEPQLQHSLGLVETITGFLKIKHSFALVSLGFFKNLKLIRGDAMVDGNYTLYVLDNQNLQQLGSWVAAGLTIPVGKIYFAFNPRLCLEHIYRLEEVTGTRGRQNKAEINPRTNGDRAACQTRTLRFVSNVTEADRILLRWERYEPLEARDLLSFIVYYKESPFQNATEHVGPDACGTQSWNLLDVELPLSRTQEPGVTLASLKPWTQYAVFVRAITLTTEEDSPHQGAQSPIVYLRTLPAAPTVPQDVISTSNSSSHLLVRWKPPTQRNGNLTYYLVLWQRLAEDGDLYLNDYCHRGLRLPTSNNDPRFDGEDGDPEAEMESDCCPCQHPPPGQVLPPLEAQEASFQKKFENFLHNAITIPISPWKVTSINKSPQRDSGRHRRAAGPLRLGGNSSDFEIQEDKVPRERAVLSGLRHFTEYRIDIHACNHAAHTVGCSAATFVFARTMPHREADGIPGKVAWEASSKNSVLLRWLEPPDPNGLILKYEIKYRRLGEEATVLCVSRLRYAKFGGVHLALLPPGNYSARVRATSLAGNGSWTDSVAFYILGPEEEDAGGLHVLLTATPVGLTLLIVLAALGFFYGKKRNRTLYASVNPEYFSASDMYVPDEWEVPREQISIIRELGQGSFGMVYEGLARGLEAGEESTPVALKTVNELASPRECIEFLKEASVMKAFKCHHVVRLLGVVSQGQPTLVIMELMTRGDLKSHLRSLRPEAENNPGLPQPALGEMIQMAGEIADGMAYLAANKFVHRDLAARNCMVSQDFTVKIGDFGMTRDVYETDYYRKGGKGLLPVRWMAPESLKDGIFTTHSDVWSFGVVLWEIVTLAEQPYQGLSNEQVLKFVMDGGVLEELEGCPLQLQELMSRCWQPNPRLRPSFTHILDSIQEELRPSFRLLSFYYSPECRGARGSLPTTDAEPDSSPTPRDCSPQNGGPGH

For `NCCCC[C@H](NC(=O)[C@H](CC(=O)O)NC(=O)[C@H](CC(=O)O)NC(=O)[C@H](CC(=O)O)NC(=O)[C@H](CC(=O)O)NC(=O)[C@H](CC(=O)O)NC(=O)[C@@H](CC(=O)O)NC(=O)CCCCCCCn1cnc2c(Br)c(Br)c(Br)c(Br)c21)C(=O)O` [TBBI-OcA-(D-Asp)-(L-Asp)5-(L-Lys)-OH] (X1-[dD]DDDDDK-OH), the remaining activity at 1 µM with MKK2 came out at 66%; with PAK4, 71%; in the data set with MPSK1 it was 96%; with Aurora B, 100%; with RSK2, 70%; with GCK it was 95%. In addition, the remaining activity at 1 µM in the data set with PKCa was 94%; in the data set with DYRK1A, 36%; with SIK3 it was 74%; with BRK, 113%; with MST3 it was 100%; in the data set with GSK3b, 46%. Also, the remaining activity at 1 µM with MELK is 92%; with PAK2, 102%; with MNK2 it was 89%; with IRR, 55%; in the data set with EPH-B1 it was 102%; in the data set with PIM2, 92%. The remaining activity at 1 µM was 96% with STK33, 122% with p38b MAPK and 36% in the data set with HIPK2.

As a reminder, the remaining activity is the signal under treatment as a percentage of the control signal.
